The conditions of data set [1]: commercial drugs; cited from earlier work.
Data set [2] concerns the target T1, recombinant human FcERI protein (human, UniProt P12319 26-205, limits assumed).
T1 construct: also called recombinant soluble IgE receptor; IgE receptor R1
T1 sequence (looked up): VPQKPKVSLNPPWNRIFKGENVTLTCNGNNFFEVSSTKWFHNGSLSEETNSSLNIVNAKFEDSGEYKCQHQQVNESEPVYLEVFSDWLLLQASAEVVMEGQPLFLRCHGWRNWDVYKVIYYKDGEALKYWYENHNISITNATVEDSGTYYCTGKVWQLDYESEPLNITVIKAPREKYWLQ
The data set can be described thus: Biacore, human IgE on CM5 chip. From the text: (§1) Human IgE was immobilized to a CM5 chip (BiaCore) using standard NHS/EDC methods. Sample proteins were dialyzed into HBS buffer overnight, and the dialysis buffer was used as a running buffer for the experiment. Sample proteins were run successively over IgE or ethanolamine coated flow cells, and the data analyzed using the BiaEvaluation software package.

In the next data set the test system is monkey PBMC. The data set can be described thus: PBMC assay on monkey cells. In kind it is cell-based, cynomolgus monkeys. As for the experimental part:
(§2) Efficacy assays were performed using human and monkey PBMC as described above. CD28 results in PBMC assays:
(§3) In order to assay the ex-vivo efficacy of monomers, they were tested on isolated peripheral blood lymphocytes (PBMC). […]. Monomer protein was added in varying concentrations to each culture and incubation occurred for 3 days at 37° C. in a CO2 containing atmosphere. During the last 9 hours, cultures were pulsed with 1 uCi per well of ^3H thymidine (ICN, Costa Mesa, Calif.) and the incorporation of radioactivity was measured on a Wallac Trilux Microbeta scintillation counter (Perkin Elmer, Boston, Mass.). See, FIG. 23.

The test system of another data set is human PBMC. The data set can be described thus: PBMC assay on human cells. In kind it is cell-based. As to the method: as §2, §3
The next data set has as its target human IgE (Homo sapiens, UniProt P01854). The data set can be described thus: Biacore affinity measurements on immobilized human IgE. It is filed as binding. Conditions: IgE on CM5 chip.
Description: as §1
On the technique in general: SPR reads the build-up and loss of mass on a sensor chip optically.

As a reminder, the Kd is the constant that tells how readily two partners part at equilibrium.

Turning to Enbrel, the “Human T1/2” value in data set [1] was 103 h. In the case of Remicade: TNFa Antibody, the “Human T1/2” value in data set [1] was 216 h. As to Rituxan: CD20 Antibody, in data set [1], the “Human T1/2” value was 78 h.

B1: human IgE (antibody)
chain: ASTQSPSVFPLTRCCKNIPSNATSVTLGCLATGYFPEPVMVTWDTGSLNGTTMTLPATTLTLSGHYATISLLTVSGAWAKQMFTCRVAHTPSSTDWVDNKTFSVCSRDFTPPTVKILQSSCDGGGHFPPTIQLLCLVSGYTPGTINITWLEDGQVMDVDLSTASTTQEGELASTQSELTLSQKHWLSDRTYTCQVTYQGHTFEDSTKKCADSNPRGVSAYLSRPSPFDLFIRKSPTITCLVVDLAPSKGTVNLTWSRASGKPVNHSTRKEEKQRNGTLTVTSTLPVGTRDWIEGETYQCRVTHPHLPRALMRSTTKTSGPRAAPEVYAFATPEWPGSRDKRTLACLIQNFMPEDISVQWLHNEVQLPDARHSTTQPRKTKGSGFFVFSRLEVTRAEWEQKDEFICRAVHEAASPSQTVQRAVSVNPGK
notes: Immobilized on plates or on a CM5 chip; variable regions and light chain not described
In the case of B1, in data set [2], the Kd came to 450 nM.

B2: CD28 10: CD28 trimer, sequence >CD28-A10 (protein)
chain: CGPGRFQCESGQCVPATWVCDGDDDCADGSDEKSCATTAPTCESNQFQCGSGQCLPGTWRCDGVNDCADSSDETGCGRPGPGATSAPAACGPGRFQCNNGNCVPQTLGCDGDNDCGDSSDEANCSAPASEPPGSL
With B2, the inhibition entry with monkey PBMC and with human PBMC was “inhibition = 81%” each time.

B3: FcERI: recombinant human FcERI protein, the IgE receptor (protein)
chain: T1 sequence (looked up)
For the molecule B3, in the data set with human IgE, the ka is on record as 8.4 × 10^3 and the kd is on record as 3.8 × 10^−3.

Source of the values: US20050089932A1, “Novel proteins with targeted binding” (Avidia Research Institute, priority 2001, published 2005).
